How the values were obtained:
CotA [1] = target: T1, CotA (Clostridium difficile, UniProt Q186G8 SEQ:1-305); test: SPR; CotA immobilized on hydrogel chip by EDC, aptamer injected; conditions: tags: His6
T1 sequence: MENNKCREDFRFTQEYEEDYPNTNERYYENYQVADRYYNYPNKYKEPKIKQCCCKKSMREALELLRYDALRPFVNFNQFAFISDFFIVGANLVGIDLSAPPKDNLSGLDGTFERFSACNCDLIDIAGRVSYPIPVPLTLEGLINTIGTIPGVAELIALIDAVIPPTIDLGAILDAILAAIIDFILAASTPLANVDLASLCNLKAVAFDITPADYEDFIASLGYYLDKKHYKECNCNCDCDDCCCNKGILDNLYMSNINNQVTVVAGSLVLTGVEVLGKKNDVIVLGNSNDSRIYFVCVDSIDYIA
Method: For CotA C1, the protein was immobilized on a hydrogel chip with EDC-mediated conjugation between primary amines on the protein (side chains on residues) and carboxylic acid groups on the surface of the chip. A protein of similar size was immobilized in the same manner as a negative control. […] For CdeC D1, the protein was received as aggregated, insoluble balls of protein. The binding assay was performed by incubating fluorescently labeled aptamers (FAM) with the protein, and then spinning the tubes down in a microcentrifuge to remove unbound. The pellet was resuspended in selection buffer and spun down again. Bound aptamers were eluted by adding 6 M urea, and spinning again, retaining the supernatant. The aptamers were cleaned up with PCR cleanup columns and the fluorescence was read on a Tecan Sapphire II fluorometer. Excitation was at 497 nm, and emission was at 515 nm. The amount of fluorescence measured in the eluant was divided by the total amount of fluorescence of all fractions.
(§1) For aptamer CdeC D1 (SEQ ID No 6), the KD was not determined due to protein aggregation.

[2] = target: T2, CotEC chitinase (rCotEC P381-F712) (Clostridium difficile); test: SPR; conditions: tags: C-terminal His
Method: (§2) For CotE D2, CotE H2 and CotEC chitinase, aptamers were spotted on a gold surface at a concentration of 5 μM in PBS at a volume of approximately 10 nL in triplicate. Negative aptamers of the same length as the positive aptamers were spotted in the same manner, also in triplicate. Protein was then injected over the chip at a volume of 200 μL, with a flow rate of 50 μL/min in a Horiba (OpenPlex) surface plasmon resonance imaging (SPRi) instrument. Resonance due to binding was obtained by subtracting total resonance on the negative sequences from total resonance on the positive sequences. Disassociation values were computed with the following equation: dx/dt˜−kd*x, wherein dx/dt is the derivative of resonance values as a function of time and x is the resonance value for any given time point. Association values were computed with the following equation: dx/dt˜ka*c*Rmax−(ka*c+kd)*x, where x is the resonance due to binding at specific time points, c is the concentration of injectant, and Rmax is the maximum resonance observed.
as §1

CdeM = CdeM (Clostridium difficile); test: BLI; conditions: tags: His
CotA [3] = target: T1, CotA; test: BLI; slower association, little dissociation; conditions: tags: His6
Method: The refined pools (characterized in FIGS. 21-25) were taken forwards for monoclonal isolation. All aptamers were purified (after elution) and resuspended and stored in water. Before use in selections or binding assays, aptamers were diluted in a final concentration 1× buffer. Individual aptamer clones were isolated and screened by BLI using aptamer concentrations of 0.5 μM, 1 μM, or 2 μM. Again, the target was immobilized onto a Biolayer Interferometry sensor probe and then incubated with each aptamer clone. The results are presented below (FIGS. 26-30).

[4] = target: T2, CotEC chitinase (rCotEC P381-F712); test: BLI; conditions: tags: C-terminal His
CotE (rCotE N281-F712) = CotE (rCotE N281-F712) (Clostridium difficile); test: SPR; conditions: tags: C-terminal His
Method: as §2, §1

B1: CotA_C1 (ssDNA)
DNA: CCAGTGTAGACTACTCAATGCCGTGGACTGGTCGGGTTTGGATTCGGCAGATGAATCACTAGTACTATCCACAGGTCAACC
Kd (CotA [1]): 6.87 nM

B2: Chitinase_D11 (ssDNA)
DNA: CCAGTGTAGACTACTCAATGCCTGGTAAATCGATGACCGCTGCCTCGCCTGAGTAATCATCGTACTATCCACAGGTCAACC
Kd [2]: 254 nM

B3: CdeM_E2 (ssDNA)
DNA: CCAGTGTAGACTACTCAATGCCTTCCATTCACCTACCGAGCTAAGCGTTCGACTTAGGTCTGTACTATCCACAGGTCAACC
binding result (CdeM): binds

B4: CotA_B1 (ssDNA)
DNA: CCAGTGTAGACTACTCAATGCTTAAGTTCTGGGGACACGTGATGAACGCATTTAATGGGGCGTACTATCCACAGGTCAACC
binding result (CotA [3]): binds

B5: Chitinase_H11 (ssDNA)
DNA: CCAGTGTAGACTACTCAATGCCTTGTAAGAAGAACAATCGCCGCTTCGCCTGAATAGGTTCGTACTATCCACAGGTCAACC
binding result [4]: binds

B6: CotE_D2 (ssDNA)
DNA: CCAGTGTAGACTACTCAATGCTCGACATTTCCGCCCCGACGGCCCTCCTAGTGATGGGGAGAGTACTATCCACAGGTCAACC
Kd (CotE (rCotE N281-F712)): > 250 nM

B7: Chitinase_D10 (ssDNA)
DNA: CCAGTGTAGACTACTCAATGCCCTATTAGCTGTATCGATCCGTTTAGTCGCTCCTCCGATAGTACTATCCACAGGTCAACC
binding result [4]: binds

From patent US20200385730, “Aptamers Against Clostridium Difficile” (Biovector, Inc., published 2020)
